# Source: patent US20140072613A1, “Compositions and Methods for Treating Cutaneous Scarring” (priority 2012, published 2014)
# How the values were obtained:
# Assay in all cases: biochemical
# MSK1 (h) = MSK1 (h) (Homo sapiens, UniProt O75582); settings: MSK1(h); 100 μM
# Excerpt: (§1) Specifically, in these assays, a positively charged substrate is phosphorylated with a radiolabeled phosphate group from an ATP if the kinase is not inhibited by an inhibitor peptide. The positively charged substrate then is attracted to a negatively charged filter membrane, quantified with a scintillation counter, and compared to a 100% activity control.
# CaMKI (h) = CaMKI (h) (Homo sapiens, UniProt Q14012); settings: CaMKI(h); 100 μM
# Excerpt: as §1
# FGFR2 (h) = FGFR2 (h) (Homo sapiens, UniProt P21802); settings: FGFR2(h); 100 μM
# Excerpt: as §1
# Fes(h) = Fes(h) (Homo sapiens, UniProt P07332); settings: 100 μM
# Excerpt: as §1
# Pim-1 (h) = Pim-1 (h) (Homo sapiens, UniProt P11309); settings: Pim-1(h); 100 μM
# Excerpt: as §1
# CaMK1δ (h) = CaMK1δ (h) (Homo sapiens, UniProt Q8IU85); settings: CaMKIδ(h); 100 μM
# Excerpt: as §1
# 266 human kinases [1] = biological target: 266 human kinases (Homo sapiens, UniProt Q15375); type: biochemical; settings: EphA7(h); 100 μM
# Excerpt: as §1
# 266 human kinases [2] = biological target: 266 human kinases (Homo sapiens, UniProt P06213); type: biochemical; settings: IR(h), 100 μM
# Excerpt: as §1
# 266 human kinases [3] = biological target: 266 human kinases (Homo sapiens, UniProt P08581, Y1230D); type: biochemical; settings: Met(Y1248D)(h); 100 μM
# Excerpt: as §1
# 266 human kinases [4] = biological target: 266 human kinases (Homo sapiens, UniProt P49761); type: biochemical; settings: CLK3(h); 100 μM
# Excerpt: as §1
# 266 human kinases [5] = biological target: T1, 266 human kinases (Homo sapiens, UniProt Q8N568); type: biochemical; settings: DCAMKL2(h); 100 μM
# T1 sequence (Q8N568 1-766): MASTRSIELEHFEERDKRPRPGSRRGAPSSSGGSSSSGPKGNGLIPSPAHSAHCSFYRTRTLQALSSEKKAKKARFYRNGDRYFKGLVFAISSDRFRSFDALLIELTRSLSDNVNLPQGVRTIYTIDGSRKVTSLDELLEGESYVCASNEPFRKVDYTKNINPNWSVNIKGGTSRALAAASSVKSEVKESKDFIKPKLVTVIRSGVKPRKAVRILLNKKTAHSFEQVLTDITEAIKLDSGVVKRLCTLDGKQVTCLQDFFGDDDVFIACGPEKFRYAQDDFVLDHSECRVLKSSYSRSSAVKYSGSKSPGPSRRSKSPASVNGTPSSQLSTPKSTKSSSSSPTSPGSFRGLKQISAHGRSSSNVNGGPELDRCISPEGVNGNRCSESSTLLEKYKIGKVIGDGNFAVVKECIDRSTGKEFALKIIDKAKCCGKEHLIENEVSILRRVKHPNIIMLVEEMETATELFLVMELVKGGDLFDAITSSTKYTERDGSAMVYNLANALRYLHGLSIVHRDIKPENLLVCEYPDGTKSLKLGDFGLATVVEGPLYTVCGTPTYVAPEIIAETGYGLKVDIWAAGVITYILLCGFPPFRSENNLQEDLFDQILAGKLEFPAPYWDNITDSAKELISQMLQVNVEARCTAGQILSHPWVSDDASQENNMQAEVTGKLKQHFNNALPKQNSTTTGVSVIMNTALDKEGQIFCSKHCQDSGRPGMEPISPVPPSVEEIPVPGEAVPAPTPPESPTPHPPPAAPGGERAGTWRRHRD
# Excerpt: as §1
# 266 human kinases [6] = biological target: 266 human kinases (Homo sapiens, UniProt P12931); type: biochemical; settings: 100 μM
# Excerpt: as §1
# 266 human kinases [7] = biological target: T2, 266 human kinases (Homo sapiens, UniProt P51813); type: biochemical; settings: Bmx(h); 100 μM
# T2 sequence (P51813 1-675): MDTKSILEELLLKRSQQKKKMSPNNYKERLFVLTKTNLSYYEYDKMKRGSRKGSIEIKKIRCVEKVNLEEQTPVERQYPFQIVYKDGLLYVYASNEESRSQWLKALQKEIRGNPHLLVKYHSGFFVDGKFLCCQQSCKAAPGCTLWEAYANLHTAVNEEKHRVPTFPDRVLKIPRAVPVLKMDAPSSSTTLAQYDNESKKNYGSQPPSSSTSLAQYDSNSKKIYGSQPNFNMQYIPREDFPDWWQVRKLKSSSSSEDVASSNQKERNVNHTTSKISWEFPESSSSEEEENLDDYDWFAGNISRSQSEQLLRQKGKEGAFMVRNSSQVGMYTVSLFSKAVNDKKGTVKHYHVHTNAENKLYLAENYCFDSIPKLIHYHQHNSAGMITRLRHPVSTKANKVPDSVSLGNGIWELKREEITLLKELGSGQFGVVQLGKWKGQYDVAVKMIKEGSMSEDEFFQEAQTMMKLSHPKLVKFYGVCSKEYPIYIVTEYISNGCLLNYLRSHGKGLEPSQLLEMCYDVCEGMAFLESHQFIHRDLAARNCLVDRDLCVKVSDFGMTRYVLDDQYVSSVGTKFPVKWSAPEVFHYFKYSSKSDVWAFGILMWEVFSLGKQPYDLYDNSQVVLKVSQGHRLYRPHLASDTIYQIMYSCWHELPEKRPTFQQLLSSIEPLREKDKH
# Excerpt: as §1
# 266 human kinases [8] = biological target: 266 human kinases (Homo sapiens, UniProt P53779); type: biochemical; settings: JNK3(h); 100 μM
# Excerpt: as §1
# 266 human kinases [9] = biological target: 266 human kinases (Homo sapiens, UniProt Q07912); type: biochemical; settings: ACK1(h); 100 μM
# Excerpt: as §1
# 266 human kinases [10] = biological target: 266 human kinases (Homo sapiens, UniProt P51955); type: biochemical; settings: NEK2(h); 100 μM
# Excerpt: as §1
# 266 human kinases [11] = biological target: 266 human kinases (Homo sapiens, UniProt P41240); type: biochemical; settings: CSK(h); 100 μM
# Excerpt: as §1
# Chain of 266 human kinases (Homo sapiens, UniProt P41240) (P41240 whole entry): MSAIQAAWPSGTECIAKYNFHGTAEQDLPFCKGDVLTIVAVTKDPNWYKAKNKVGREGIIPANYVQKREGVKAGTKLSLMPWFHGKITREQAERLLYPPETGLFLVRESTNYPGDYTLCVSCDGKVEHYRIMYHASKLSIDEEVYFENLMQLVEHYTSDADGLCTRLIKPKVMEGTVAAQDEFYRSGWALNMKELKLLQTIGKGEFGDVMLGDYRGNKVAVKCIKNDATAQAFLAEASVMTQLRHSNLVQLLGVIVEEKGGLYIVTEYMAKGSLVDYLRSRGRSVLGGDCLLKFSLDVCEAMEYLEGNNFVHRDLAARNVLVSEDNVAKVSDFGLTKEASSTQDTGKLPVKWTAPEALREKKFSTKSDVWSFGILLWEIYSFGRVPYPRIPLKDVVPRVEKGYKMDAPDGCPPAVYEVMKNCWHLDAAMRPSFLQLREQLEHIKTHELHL
# Chain of Pim-1 (h) (P11309 whole entry): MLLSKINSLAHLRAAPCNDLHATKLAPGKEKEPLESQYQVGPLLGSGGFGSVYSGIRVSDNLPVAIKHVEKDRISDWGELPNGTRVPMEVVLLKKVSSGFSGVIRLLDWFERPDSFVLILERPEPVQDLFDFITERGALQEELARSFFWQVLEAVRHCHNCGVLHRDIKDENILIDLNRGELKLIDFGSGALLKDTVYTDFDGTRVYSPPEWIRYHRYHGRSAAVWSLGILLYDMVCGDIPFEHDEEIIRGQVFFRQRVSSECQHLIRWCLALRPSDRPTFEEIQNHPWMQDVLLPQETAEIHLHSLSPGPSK
# Chain of 266 human kinases (Homo sapiens, UniProt Q07912) (Q07912 whole entry): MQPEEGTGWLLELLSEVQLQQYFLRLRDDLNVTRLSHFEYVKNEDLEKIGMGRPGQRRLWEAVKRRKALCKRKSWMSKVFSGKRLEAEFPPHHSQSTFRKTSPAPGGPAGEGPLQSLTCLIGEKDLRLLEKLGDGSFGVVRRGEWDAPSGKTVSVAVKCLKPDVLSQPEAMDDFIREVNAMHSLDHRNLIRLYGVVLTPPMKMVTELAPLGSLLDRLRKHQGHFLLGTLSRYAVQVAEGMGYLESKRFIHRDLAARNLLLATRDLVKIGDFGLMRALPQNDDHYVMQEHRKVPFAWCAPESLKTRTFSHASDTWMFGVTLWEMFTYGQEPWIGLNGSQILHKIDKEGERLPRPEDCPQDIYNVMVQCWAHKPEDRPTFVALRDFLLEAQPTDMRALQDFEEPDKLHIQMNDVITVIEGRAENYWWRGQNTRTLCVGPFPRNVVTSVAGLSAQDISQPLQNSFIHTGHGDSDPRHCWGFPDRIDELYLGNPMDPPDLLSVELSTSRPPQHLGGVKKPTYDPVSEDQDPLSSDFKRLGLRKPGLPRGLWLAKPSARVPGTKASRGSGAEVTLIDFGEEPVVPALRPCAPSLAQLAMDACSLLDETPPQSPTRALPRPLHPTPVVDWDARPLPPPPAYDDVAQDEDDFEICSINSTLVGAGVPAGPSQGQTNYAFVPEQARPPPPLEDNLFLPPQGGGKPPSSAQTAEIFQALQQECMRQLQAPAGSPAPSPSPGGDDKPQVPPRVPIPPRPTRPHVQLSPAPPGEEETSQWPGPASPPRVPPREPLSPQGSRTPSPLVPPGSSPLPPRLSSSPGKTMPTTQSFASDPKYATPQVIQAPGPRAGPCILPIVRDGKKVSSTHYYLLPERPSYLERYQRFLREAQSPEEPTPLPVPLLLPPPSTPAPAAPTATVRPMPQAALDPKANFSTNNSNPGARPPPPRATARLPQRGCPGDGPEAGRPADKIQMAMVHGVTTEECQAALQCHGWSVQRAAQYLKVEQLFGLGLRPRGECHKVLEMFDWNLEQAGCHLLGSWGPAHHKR
# Chain of 266 human kinases (Homo sapiens, UniProt P51955) (P51955 whole entry): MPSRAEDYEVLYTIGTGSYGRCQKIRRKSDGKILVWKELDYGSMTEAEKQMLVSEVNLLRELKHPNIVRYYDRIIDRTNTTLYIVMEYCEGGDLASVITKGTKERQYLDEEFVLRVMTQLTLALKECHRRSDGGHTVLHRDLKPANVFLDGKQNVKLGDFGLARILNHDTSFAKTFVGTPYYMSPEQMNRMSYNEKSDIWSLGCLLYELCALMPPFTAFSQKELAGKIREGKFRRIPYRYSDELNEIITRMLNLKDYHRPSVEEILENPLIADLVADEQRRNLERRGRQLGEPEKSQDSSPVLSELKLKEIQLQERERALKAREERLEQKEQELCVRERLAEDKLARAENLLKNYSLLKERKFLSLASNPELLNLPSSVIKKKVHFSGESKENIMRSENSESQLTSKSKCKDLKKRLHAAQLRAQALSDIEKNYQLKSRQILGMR
# Chain of 266 human kinases (Homo sapiens, UniProt P53779) (P53779 whole entry): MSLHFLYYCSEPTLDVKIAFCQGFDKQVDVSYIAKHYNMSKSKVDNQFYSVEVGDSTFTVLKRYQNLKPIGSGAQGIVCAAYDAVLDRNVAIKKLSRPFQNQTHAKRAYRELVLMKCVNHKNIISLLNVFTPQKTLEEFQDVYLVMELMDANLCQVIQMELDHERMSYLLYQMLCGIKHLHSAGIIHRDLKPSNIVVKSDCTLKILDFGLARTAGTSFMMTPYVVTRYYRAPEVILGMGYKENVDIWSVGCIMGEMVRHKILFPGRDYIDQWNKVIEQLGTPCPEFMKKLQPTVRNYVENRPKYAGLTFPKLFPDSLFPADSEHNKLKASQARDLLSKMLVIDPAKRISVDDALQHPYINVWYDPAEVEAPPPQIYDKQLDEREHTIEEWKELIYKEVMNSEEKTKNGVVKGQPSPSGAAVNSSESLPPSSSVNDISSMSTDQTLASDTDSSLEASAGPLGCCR
# Chain of CaMK1δ (h) (Q8IU85 whole entry): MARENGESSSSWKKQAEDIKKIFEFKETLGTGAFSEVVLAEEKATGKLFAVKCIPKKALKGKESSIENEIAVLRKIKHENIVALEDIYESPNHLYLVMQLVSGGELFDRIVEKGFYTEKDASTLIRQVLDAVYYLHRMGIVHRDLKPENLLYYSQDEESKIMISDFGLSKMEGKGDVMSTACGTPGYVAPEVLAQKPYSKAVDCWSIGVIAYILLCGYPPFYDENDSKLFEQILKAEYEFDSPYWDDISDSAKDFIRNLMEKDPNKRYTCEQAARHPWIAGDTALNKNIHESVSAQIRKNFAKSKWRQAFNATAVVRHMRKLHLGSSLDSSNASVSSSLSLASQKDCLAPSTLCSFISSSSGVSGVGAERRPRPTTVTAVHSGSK
# Chain of MSK1 (h) (O75582 whole entry): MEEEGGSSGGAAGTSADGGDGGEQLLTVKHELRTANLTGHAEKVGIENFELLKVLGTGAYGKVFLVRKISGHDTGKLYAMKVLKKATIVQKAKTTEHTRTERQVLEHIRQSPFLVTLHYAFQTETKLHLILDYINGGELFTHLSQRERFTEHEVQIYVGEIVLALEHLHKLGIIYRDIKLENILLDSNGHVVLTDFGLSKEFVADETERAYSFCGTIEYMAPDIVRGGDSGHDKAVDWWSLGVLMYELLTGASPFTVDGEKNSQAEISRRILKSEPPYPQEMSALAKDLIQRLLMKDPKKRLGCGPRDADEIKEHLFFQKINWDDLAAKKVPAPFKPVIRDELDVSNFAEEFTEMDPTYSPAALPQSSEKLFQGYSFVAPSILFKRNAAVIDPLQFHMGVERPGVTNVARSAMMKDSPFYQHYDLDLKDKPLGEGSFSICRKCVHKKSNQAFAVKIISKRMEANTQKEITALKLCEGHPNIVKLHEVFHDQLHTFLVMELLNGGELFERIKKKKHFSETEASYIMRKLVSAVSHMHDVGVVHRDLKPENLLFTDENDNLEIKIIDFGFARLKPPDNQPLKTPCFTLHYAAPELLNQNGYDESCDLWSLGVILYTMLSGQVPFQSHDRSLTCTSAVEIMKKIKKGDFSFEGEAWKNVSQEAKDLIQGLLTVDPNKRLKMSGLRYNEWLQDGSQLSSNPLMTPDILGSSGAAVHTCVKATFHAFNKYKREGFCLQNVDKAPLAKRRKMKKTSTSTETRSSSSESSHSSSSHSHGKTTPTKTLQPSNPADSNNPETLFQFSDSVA
# Chain of CaMKI (h) (Q14012 whole entry): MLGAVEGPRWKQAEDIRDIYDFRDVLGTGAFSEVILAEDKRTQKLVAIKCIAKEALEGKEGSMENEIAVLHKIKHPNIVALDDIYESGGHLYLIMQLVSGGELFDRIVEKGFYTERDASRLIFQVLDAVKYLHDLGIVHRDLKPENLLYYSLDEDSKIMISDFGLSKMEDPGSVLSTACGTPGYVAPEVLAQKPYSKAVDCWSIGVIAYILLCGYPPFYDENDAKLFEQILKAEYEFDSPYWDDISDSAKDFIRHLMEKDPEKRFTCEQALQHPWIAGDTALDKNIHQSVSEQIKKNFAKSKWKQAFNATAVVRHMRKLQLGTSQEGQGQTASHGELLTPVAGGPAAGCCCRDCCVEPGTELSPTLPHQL
# Chain of 266 human kinases (Homo sapiens, UniProt P49761) (P49761 whole entry): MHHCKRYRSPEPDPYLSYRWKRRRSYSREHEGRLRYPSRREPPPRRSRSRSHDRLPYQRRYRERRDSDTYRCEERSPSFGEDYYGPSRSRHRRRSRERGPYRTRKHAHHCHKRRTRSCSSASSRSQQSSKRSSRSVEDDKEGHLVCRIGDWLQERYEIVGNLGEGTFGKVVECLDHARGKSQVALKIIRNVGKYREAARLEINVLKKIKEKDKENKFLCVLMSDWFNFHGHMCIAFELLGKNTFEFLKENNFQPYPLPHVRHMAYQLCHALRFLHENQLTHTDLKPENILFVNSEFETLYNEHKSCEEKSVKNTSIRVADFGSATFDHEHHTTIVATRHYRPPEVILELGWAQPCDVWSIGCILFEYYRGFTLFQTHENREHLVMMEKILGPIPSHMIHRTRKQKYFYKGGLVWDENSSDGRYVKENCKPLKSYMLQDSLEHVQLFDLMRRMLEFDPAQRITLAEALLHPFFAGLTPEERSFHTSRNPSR
Sequence,% activity (MSK1 (h)) [%],% activity (CaMKI (h)) [%],% activity (FGFR2 (h)) [%],% activity (Fes(h)) [%],% activity (Pim-1 (h)) [%],% activity (CaMK1δ (h)) [%],% activity (266 human kinases [1]) [%],% activity (266 human kinases [2]; activated) [%],% activity (266 human kinases [2]) [%],% activity (266 human kinases [3]) [%],% activity (266 human kinases [4]) [%],% activity (266 human kinases [5]) [%],% activity (266 human kinases [6]; Src(1-530)(h)) [%],% activity (266 human kinases [6]; cSRC(h)) [%],% activity (266 human kinases [7]) [%],% activity (266 human kinases [8]) [%],% activity (266 human kinases [9]) [%],% activity (266 human kinases [10]) [%],% activity (266 human kinases [11]) [%]
HRRIKAWLKKIKALARQLGVAA (mammal) [MMI-0500],8,−1,12,23,0,0,189,90,95,218,76,56,21,30,45,171,64,0,2
YARAAARQARAKALNRQLGVA (mammal) [MMI-0200],50,21,73,74,18,47,220,–,90,118,76,131,75,32,76,90,97,97,33
